We go through 36 molecules from patent US20260242478A1 (published 2026).

Where no end group is shown, it is not given here.

For assay [1], the target named is T1, Anti-PSMA Fab (SEQ ID NOs: 19, 20) (biotinylated (site not stated)).
T1 construct: also called 006 PSMA Fab
In words: phage ELISA; biotinylated PSMA Fab on neutravidin plate, clonal phage supernatant, anti-M13 HRP detection.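 Also: wells preincubated with PSMA antigen in blocking buffer or with blocking buffer only before clonal phage were added for a short incubation, then bound phage detected.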 For orientation: In an ELISA, binding on a coated surface is turned into a signal by an enzyme label.

Assay [2] concerns the target T1, Anti-PSMA Fab (SEQ ID NOs: 19, 20). In words: phage ELISA; biotinylated PSMA Fab on neutravidin plate, wells pre-incubated with PSMA antigen as competitor, anti-M13 HRP detection.
For assay [3], the target named is T2, Anti-PSMA Fab (SEQ ID NOs: 19, 20).
T2 construct: Biotinylated and captured on neutravidin coated plates in the phage ELISA; also called 006 PSMA Fab
In words: phage binding ELISA on captured PSMA Fab; competitor PSMA antigen pre-incubated in the well.

Assay [4] shares this target. As to the kind of experiment: phage binding ELISA; biotinylated PSMA Fab on neutravidin plate, bound phage detected with anti-M13 HRP.
Assay [5] concerns the target T3, Anti-PSMA Fab (SEQ ID NOs: 19, 20).
T3 construct: Biotinylated PSMA Fab captured on neutravidin coated plates in the phage ELISA; also called 006 PSMA Fab
As to the kind of experiment: phage binding ELISA on captured PSMA Fab pre-incubated with PSMA antigen as competitor, anti-M13 HRP detection.

The target is the same in assay [6]. In words: phage binding ELISA; clonal phage supernatant on biotinylated PSMA Fab captured on neutravidin plates, anti-M13 HRP detection.
The target in assay [7] is T4, Anti-PSMA Fab (SEQ ID NOs: 19, 20).
T4 construct: also called 006 PSMA Fab
In words: phage binding ELISA; clonal phage supernatant on biotinylated PSMA Fab captured on neutravidin plate; anti-M13-HRP detection.

Assay [8] has the same target. As to the kind of experiment: phage binding ELISA; clonal phage supernatant on biotinylated PSMA Fab captured on neutravidin plate, wells pre-incubated with PSMA antigen (competitor: PSMA); anti-M13-HRP detection.

B1: Phage-1925 (peptide)
peptide: TEMWCKPAWMCTGF
notes: Clonal phage of the Peptide-180 library, tested as crude supernatant; not shown: fused to the pIII filament protein of the bacteriophage
On to B1, for which, in assay [1], the “Phage binding ELISA, Anti-PSMA Fab (SEQ ID NOs: 19, 20) signal” value came to 1.99. For the same molecule, the “Phage binding ELISA, Anti-PSMA Fab signal in the presence of PSMA” value (shortened to “Phage binding ELISA … of PSMA”) in assay [2] came to 0.0938.

B2: Phage-1927 (peptide)
peptide: WENWCTPAWMCSHM
notes: as for B1
As to B2, in assay [1], the “Phage binding ELISA, Anti-PSMA Fab (SEQ ID NOs: 19, 20) signal” value is 1.98. For the same molecule, the “Phage binding ELISA … of PSMA” value in assay [2] came to 0.1.

B3: Phage-1905 (peptide)
peptide: EIRLCTPSWMCMGF
modifications: cysteine pairing not given here; also: displayed as fusion to phage pIII
notes: Peptide-180 library clone, tested as clonal phage supernatant; not shown: pIII of the bacteriophage to which the peptide is fused
Turning to B3, the “Anti-PSMA Fab signal in the presence of PSMA” value in assay [3] amounted to 0.0792. Moreover, the “Anti-PSMA Fab (SEQ ID NOs: 19, 20) signal” value in assay [4] was found to be 2.02.

B4: Phage-1903 (peptide)
peptide: IDMRCTPNWMCIGF
modifications: cysteine pairing not given here; also: displayed as fusion to phage pIII
notes: as for B3
Take B4: the “Anti-PSMA Fab signal in the presence of PSMA” value in assay [3] is 0.081. For the same molecule, the “Anti-PSMA Fab (SEQ ID NOs: 19, 20) signal” value in assay [4] was determined as 2.03.

B5: Phage-1924 (peptide)
peptide: TEKLCIPEWMCFGM
notes: as for B1
On to B5, for which the “Phage binding ELISA, Anti-PSMA Fab (SEQ ID NOs: 19, 20) signal” value in assay [1] came out at 1.99. Further, the “Phage binding ELISA … of PSMA” value in assay [2] is 0.0644.

For the molecule VIKWCTPAWMCTAL [Phage-1914], the “Anti-PSMA Fab signal in the presence of PSMA” value in assay [5] worked out at 0.0733. In addition, in assay [6], the “Anti-PSMA Fab (SEQ ID NOs: 19, 20) signal” value stood at 2.

Turning to SAHMCIPPWMCLHT [Phage-1907], the “Anti-PSMA Fab signal in the presence of PSMA” value in assay [5] was found to be 0.133. In addition, in assay [6], the “Anti-PSMA Fab (SEQ ID NOs: 19, 20) signal” value was 2.02.

B6: Phage-1934 (peptide)
peptide: VSIWCRPAWMCESG
notes: as for B1
As to B6, the “Phage binding ELISA, Anti-PSMA Fab (SEQ ID NOs: 19, 20) signal” value in assay [1] was found to be 1.97. Besides, the “Phage binding ELISA … of PSMA” value in assay [2] came to 0.0809.

B7: Phage-1932 (peptide)
peptide: DFKWCTPMWMCEHL
notes: as for B1
Turning to B7, the “Phage binding ELISA, Anti-PSMA Fab (SEQ ID NOs: 19, 20) signal” value in assay [1] is 1.97. In assay [2], the “Phage binding ELISA … of PSMA” value came to 0.106.

On to ESIRCIPLWMCEGF [Phage-1913], for which the “Anti-PSMA Fab signal in the presence of PSMA” value in assay [5] is 0.0894. Besides, the “Anti-PSMA Fab (SEQ ID NOs: 19, 20) signal” value in assay [6] is 2.

B8: Phage-1930 (peptide)
peptide: VQNWCIPAWMCQGM
notes: as for B1
For the molecule B8, in assay [1], the “Phage binding ELISA, Anti-PSMA Fab (SEQ ID NOs: 19, 20) signal” value is 1.98. Also, the “Phage binding ELISA … of PSMA” value in assay [2] was 0.0574.

For GEYWCIPSWMCQLY [Phage-1920], in assay [5], the “Anti-PSMA Fab signal in the presence of PSMA” value was found to be 0.179. Besides, in assay [6], the “Anti-PSMA Fab (SEQ ID NOs: 19, 20) signal” value stood at 1.99.

GDPWCIPAWMCMEF [Phage-1911]: in assay [5], the “Anti-PSMA Fab signal in the presence of PSMA” value is 0.088. Moreover, in assay [6], the “Anti-PSMA Fab (SEQ ID NOs: 19, 20) signal” value was 2.01.

For the molecule MMKWCIPTWMCEME [Phage-1912], the “Anti-PSMA Fab signal in the presence of PSMA” value in assay [5] was 0.132. In addition, the “Anti-PSMA Fab (SEQ ID NOs: 19, 20) signal” value in assay [6] came out at 2.

B9: Phage-1931 (peptide)
peptide: WDRLCTPAWMCTGF
notes: as for B1
With B9, the “Phage binding ELISA, Anti-PSMA Fab (SEQ ID NOs: 19, 20) signal” value in assay [1] stood at 1.97. In assay [2], the “Phage binding ELISA … of PSMA” value worked out at 0.104.

Take WPKWCTPPWMCFQD [Phage-1936]: the “Anti-PSMA Fab (SEQ ID NOs: 19, 20) signal” value in assay [7] is 1.96. Further, the “Anti-PSMA Fab signal in the presence of PSMA” value in assay [8] turned out to be 0.148.

B10: Phage-1928 (peptide)
peptide: ELHLCIPRGMCKFR
notes: as for B1
Turning to B10, the “Phage binding ELISA, Anti-PSMA Fab (SEQ ID NOs: 19, 20) signal” value in assay [1] came to 1.98. Also, the “Phage binding ELISA … of PSMA” value in assay [2] is 0.0668.

B11: Phage-1933 (peptide)
peptide: VVQWCIPAWMCAAQ
modifications: cysteine pairing not given here; also: displayed as fusion to phage pIII
notes: as for B1
For the molecule B11, the “Phage binding ELISA, Anti-PSMA Fab (SEQ ID NOs: 19, 20) signal” value in assay [1] is 1.97. Moreover, the “Phage binding ELISA … of PSMA” value in assay [2] turned out to be 0.0955.

For the molecule IEKMCKPAWMCWAD [Phage-1917], in assay [5], the “Anti-PSMA Fab signal in the presence of PSMA” value is 0.0706. The “Anti-PSMA Fab (SEQ ID NOs: 19, 20) signal” value in assay [6] was determined as 2.

As for EKIWCVPAWMCTWL [Phage-1918], the “Anti-PSMA Fab signal in the presence of PSMA” value in assay [5] was 0.121. The “Anti-PSMA Fab (SEQ ID NOs: 19, 20) signal” value in assay [6] was 1.99.

B12: Phage-1935 (peptide)
peptide: VEKLCKPIWMCNWQ
notes: as for B1
Regarding B12, the “Phage binding ELISA, Anti-PSMA Fab (SEQ ID NOs: 19, 20) signal” value in assay [1] came out at 1.96. In addition, the “Phage binding ELISA … of PSMA” value in assay [2] was determined as 0.0992.

In the case of FTIWCIPEWMCLHE [Phage-1916], the “Anti-PSMA Fab signal in the presence of PSMA” value in assay [5] was 0.0999. The “Anti-PSMA Fab (SEQ ID NOs: 19, 20) signal” value in assay [6] is 2.

Turning to MMKWCTPAWMCEEA [Phage-1909], in assay [5], the “Anti-PSMA Fab signal in the presence of PSMA” value is 0.0691. In addition, in assay [6], the “Anti-PSMA Fab (SEQ ID NOs: 19, 20) signal” value turned out to be 2.01.

Turning to VSKLCIPMWMCETS [Phage-1919], in assay [5], the “Anti-PSMA Fab signal in the presence of PSMA” value was found to be 0.064. In addition, the “Anti-PSMA Fab (SEQ ID NOs: 19, 20) signal” value in assay [6] amounted to 1.99.

B13: Phage-1902 (peptide)
peptide: LIPWCIPAWMCTSD
modifications: cysteine pairing not given here; also: displayed as fusion to phage pIII
notes: as for B3
In the case of B13, in assay [3], the “Anti-PSMA Fab signal in the presence of PSMA” value turned out to be 0.0863. Moreover, the “Anti-PSMA Fab (SEQ ID NOs: 19, 20) signal” value in assay [4] is 2.03.

B14: Phage-1923 (peptide)
peptide: VEKWCIPTWMCELS
notes: as for B1
On to B14, for which the “Phage binding ELISA, Anti-PSMA Fab (SEQ ID NOs: 19, 20) signal” value in assay [1] is 1.99. Further, the “Phage binding ELISA … of PSMA” value in assay [2] was found to be 0.0767.

B15: Phage-1921 (peptide)
peptide: VDRWCVPVWMCEGL
modifications: cysteine pairing not given here; also: displayed as fusion to phage pIII
notes: as for B1
Take B15: the “Phage binding ELISA, Anti-PSMA Fab (SEQ ID NOs: 19, 20) signal” value in assay [1] amounted to 1.99. For the same molecule, in assay [2], the “Phage binding ELISA … of PSMA” value came out at 0.124.

B16: Phage-1929 (peptide)
peptide: AEKWCIPAWMCEAM
notes: as for B1
For B16, the “Phage binding ELISA, Anti-PSMA Fab (SEQ ID NOs: 19, 20) signal” value in assay [1] came out at 1.98. The “Phage binding ELISA … of PSMA” value in assay [2] is 0.0668.

B17: Phage-1922 (peptide)
peptide: LVNWCIPMWMCEGF
notes: as for B1
On to B17, for which the “Phage binding ELISA, Anti-PSMA Fab (SEQ ID NOs: 19, 20) signal” value in assay [1] was 1.99. In addition, in assay [2], the “Phage binding ELISA … of PSMA” value was found to be 0.107.

Consider FPKWCTPAWMCERS [Phage-1937], for which, in assay [7], the “Anti-PSMA Fab (SEQ ID NOs: 19, 20) signal” value turned out to be 1.96. Further, the “Anti-PSMA Fab signal in the presence of PSMA” value in assay [8] stood at 0.0909.

For VMKWCIPEWMCYML [Phage-1906], the “Anti-PSMA Fab signal in the presence of PSMA” value in assay [5] came to 0.204. Also, the “Anti-PSMA Fab (SEQ ID NOs: 19, 20) signal” value in assay [6] worked out at 2.02.

B18: Phage-1926 (peptide)
peptide: FAKWCTPEWMCVGF
notes: as for B1
Consider B18, for which the “Phage binding ELISA, Anti-PSMA Fab (SEQ ID NOs: 19, 20) signal” value in assay [1] stood at 1.99. In assay [2], the “Phage binding ELISA … of PSMA” value is 0.125.

Consider WDNWCIPPWMCIGF [Phage-1908], for which the “Anti-PSMA Fab signal in the presence of PSMA” value in assay [5] was determined as 0.186. In addition, in assay [6], the “Anti-PSMA Fab (SEQ ID NOs: 19, 20) signal” value was 2.02.

As to SFAWCIPPWMCEIT [Phage-1915], the “Anti-PSMA Fab signal in the presence of PSMA” value in assay [5] came to 0.127. Besides, the “Anti-PSMA Fab (SEQ ID NOs: 19, 20) signal” value in assay [6] was 2.

For the molecule GDILCRPEWMCTGF [Phage-1910], the “Anti-PSMA Fab signal in the presence of PSMA” value in assay [5] is 0.111. Besides, in assay [6], the “Anti-PSMA Fab (SEQ ID NOs: 19, 20) signal” value was 2.01.

B19: Phage-1904 (peptide)
peptide: DVKWCIPAWMCEGF
modifications: cysteine pairing not given here; also: displayed as fusion to phage pIII
notes: as for B3
In the case of B19, the “Anti-PSMA Fab signal in the presence of PSMA” value in assay [3] was determined as 0.105. In assay [4], the “Anti-PSMA Fab (SEQ ID NOs: 19, 20) signal” value is 2.02.
